Here are results for two substances from article doi:10.1101/2023.01.26.525744.

Holding throughout (test): NMR titration
Experiment [1] addresses paxillin LIM2/3 tandem domain (aa380-499) (human) (UniProt P49023).
Experiment [2] has as its target cytoplasmic tail of human integrin β1 (aa758-798) (human) (UniProt P05556).
Experiment [3] addresses cytoplasmic tail of human integrin β3 (aa748-788) (human) (UniProt P05106).

Chain of UniProt P05556 (P05556 758-798): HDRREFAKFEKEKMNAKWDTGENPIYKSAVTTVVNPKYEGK

“cytoplasmic tail of human integrin β3 (aa748-788) (from UniProt P05106 748-788) (domain or fragment)” displayed a Kd in experiment [1] of 532 µM. As for “paxillin LIM2/3 tandem domain (aa380-499) (from UniProt P49023-2 380-499) (domain or fragment)”, the Kd in experiment [2] worked out at 52 µM; in experiment [3], 528 µM.
